Test results from patent publication US20230272055A1 (Incyte, published 2023).

Molecular target: MBP protein (UniProt P0AEX9 27-392 = MBP)
Assay: SPR (Biacore 8K), antibody captured on anti-human IgG (Fc), MBP injected
Method: Experiment 1: Recombinant MBP-mutCALR Type 1 fusion protein was custom made at Cepter (cepterbiopartners.com). Data for the interaction of antibodies with recombinant MBP-mutCALR Type 1 fusion protein were collected at 25° C. on a Biacore 8K instrument (Cytiva, Marlborough, Mass.), and all reagents were obtained from Cytiva unless otherwise specified. The experiments were conducted using Tris-buffered saline (pH 7.2), 0.005% Surfactant P20, 1 mM CaCl₂) as running buffer. To prepare the capture surfaces, anti-human IgG (Fc) antibodies (Product #29234600) was amine-coupled onto a CM4 chip (Product #BR100534) under standard conditions using an Amine Coupling Kit (Product #BR100050). […] The kinetics parameters were obtained by applying 1:1 binding model to fit the data from multiple-cycle injection experiments using Biacore Insight Evaluation software.

Binder	binding result
anti-mutCALR antibody clone 36 (antibody, human IgG1, lambda, V domains shown, human IgG1; group 2) VH: QVQLVQSGAEVKKPGATVKISCKVSGYSFTDYFIHWVQQAPGKGLAWVGLVDPEDGETIYAEKFQGRVTITADTSTDTAYMELSSLRSEDTAVYYCATPGGILTDPDAFDIWGQGTMVTVSS VL: QSALTQPRSVSGSPGQSVTISCAGTGSDVGGYNYVSWYQHHPGKAPKLMIYDVNKRPSGVPDRFSGSKSGNTASLTISGLQAEDEADYYCSSYTSSSTFYVFGTGTKVTVLG	no binding (tested: 250 nM)
anti-mutCALR antibody clone 4 (antibody, human IgG1, lambda, V domains shown) VH: EVQLVQSGAEVKKPGASVKVSCKVSGYTLTELSMQWVRQAPGKGLEWMGGFDPDDGETMYAEKFQGRLTVTEDTSTDTVYMELRSLTSEDTALYFCATSPGYDFFDYWGQGTLVTVSS VL: SYVLTQPPSVSVAPGQTARITCGGNNIGSKSVHWYQQKPGQAPVLVVYDDSDRPSGIPERFSGSNSGNTATLTINRVEAGDEADYYCQVWDSSNDLLIFGGGTKLTVLG	no binding (tested: 250 nM)
anti-mutCALR antibody clone 1 (antibody, human IgG1, lambda, V domains shown, human IgG1; group 1) VH: EVQLVQSGAEVKKPGASVKVSCKVSGYTLTELSMQWVRQAPGKGLEWMGGFDPDDGETMYAEKFQGRLTVTEDTSTDTVYMELRSLTSEDTALYFCATSPGYDFFDYWGQGTLVTVSS VL: SYVLTQPPSVSVAPGKTARITCGGNYIGSKSVHWYQQKPGQAPVLVVYDDGDRPSGIPARFSGSNSGNTATLTISRVEAGDEADYYCQVWDSISDHVVFGGGTKLTVLG	no binding (tested: 250 nM)
anti-mutCALR antibody clone 9 (antibody, human IgG1, lambda, V domains shown, human IgG1; group 1) VH: EVQLVQSGAEVKKPGASVKVSCKVSGYTLTELSMQWVRQAPGKGLEWMGGFDPDDGETMYAEKFQGRLTVTEDTSTDTVYMELRSLTSEDTALYFCATSPGYDFFDYWGQGTLVTVSS VL: SYVLTQPPSVSVAPGQTARIPCGGNNIGSKSVHWYQQKPGQAPVLVVYDDRDRPSGIPERFSGSNSGNTATLTINRVEAGDEADYYCQVWDSSNDLLIFGGGTKLTVLG	no binding (tested: 250 nM)
anti-mutCALR antibody clone 12 (antibody, human IgG1, lambda, V domains shown, human IgG1; group 1) VH: EVQLVQSGAEVKKPGASVKVSCKVSGYTLTELSMQWVRQAPGKGLEWMGGFDPDGGETMYAEKFQGRLTVTEDTSTDTVYMELRSLTSEDTALYFCATSPGYDFFDYWGQGTLVTVSS VL: SYVLTQPPSVSVAPGQTARVSCGGNNIGSKSVNWYRQKPGQAPVLVIYDDSDRPSGIPERFSGSNSGNTATLTINRVEAGDEADYYCQVWDSSNDLLIFGGGTKLTVLG	no binding (tested: 250 nM)
anti-mutCALR antibody clone 3 (antibody, human IgG1, lambda, V domains shown, human IgG1; group 1) VH: EVQLVQSGAEVKKPGASVKVSCKVSGYTLTELSMQWVRQAPGKGLEWMGGFDPDDGETMYAERFQGRLTVTEDTSTDTVYMELRSLTSEDTALYFCATSPGYDFFDYWGQGTLVTVSS VL: SYVLTQPPSVSVAPGQTARITCGGNNIGSKSVHWYQQKPGQAPVLVVYDDSDRPSGIPERFSGSNSGNTATLTINRVEAGDEADYYCQVWDSSNDLLIFGGGTKLTVLG	no binding (tested: 250 nM)
anti-mutCALR antibody clone 2 (antibody, human IgG1, lambda, V domains shown, human IgG1; group 1) VH: EVQLVQSGAEVKKPGASVKVSCKVSGYTLTELSMQWVRQAPGKGLEWMGGFDPDDGETMYAEKFQGRLTVTEDTSTDTVYMELRSLTSEDTALYFCATSPGYDFFDYWGQGTLVTVSS VL: SYELTQPPSVSVAPGKTARITCGGDNIGSKSVHWYQQKPGQAPVLVVYDDSDRPSGIPERFSGSNSGNTATLTISRVEAGDEADYYCQVWDSSIDHLIFGGGTKVTVLG	no binding (tested: 250 nM)
anti-mutCALR antibody clone 5 (antibody, human IgG1, lambda, V domains shown, human IgG1; group 1) VH: EVQLVQSGAEVKKPGASVKVSCKVSGYTLTELSMQWVRQAPGKGLEWMGGFDPDDGETMYAEKFQGRLTVTEDTSTDTVYMELRSLTSEDTALYFCATSPGYDFFDYWGQGTLVTVSS VL: SYVLTQPPSVSVAPGQTASITCVGTNFGSKNVHWYQQRPGQAPVLVVYDDSDRPSGIPERFSGSNSGNTATLTISRVEAGDEADYYCQVWDSSSDHLIFGGGTKLTVLG	no binding (tested: 250 nM)
anti-mutCALR antibody clone 13 (antibody, human IgG1, lambda, V domains shown, human IgG1; group 1) VH: QVQLVQSGAEVKKPGASVKVSCKVSGYTLTELSMQWVRQAPGKGLEWMGGFDPDDGETMYAEKFQGRLTVTEDTSTDTVYMELRSLTSEDTALYFCATSPGYDFFDYWGQGTLVTVSS VL: not shown	no binding (tested: 250 nM)
anti-mutCALR antibody clone 22 (antibody, human IgG1, lambda, V domains shown, human IgG1; group 1) VH: EVQLVQSGAEVKKPGASVKVSCKVSGYTLTELSMQWVRQAPGKGLEWMGGFDPDDGETMYAEKFQGRLTVTEDTSTDTVYMELRSLTSEDTALYFCATSPGYDFFDYWGQGTLVTVSS VL: SYVLTQPPSVSVAPGKTARITCGGNNIGSKNVHWYQQKPGQAPVLVVYDDSDRPSGIPERFSGSNSGNTATLTINRVEAGDEADYYCQVWDSSNDLLIFGGGTKLTVLG	no binding (tested: 250 nM)
anti-mutCALR antibody clone 21 (antibody, human IgG1, lambda, V domains shown, human IgG1; group 1) VH: EVQLVQSGAEVKKPGASVKVSCEVSGYTLTELSMQWVRQAPGKGLEWMGGFDPDDGETMYAEKFQGRLTVTEDTSTDTVYMELRSLTSEDTALYFCATSPGYDFFDYWGQGTLVTVSS VL: SYVLTQPPSVSVAPGQTARVSCGGNNIGSKSVNWYRQKPGQAPVLVIYDDSDRPSGIPERFSGSNSGNTATLTISRVEAGDEADYYCQVWDSSNDLLIFGGGTKLTVLG	no binding (tested: 250 nM)
anti-mutCALR antibody clone 18 (antibody, human IgG1, lambda, V domains shown, human IgG1; group 1) VH: EVQLVQSGAEVKKPGASVKVSCKVSGYTLTELSMQWVRQAPGKGLEWMGGFDPDDGETMYAEKFQGRLTVTEDTSTDTVYMELRSLTSEDTALYFCATSPGYDFFDYWGQGTLVTVSS VL: SYVLTQPPSVSVAPGKTARITCGGNNIGSKSVHWYQQKPGQAPVLVVYDDSDRPLGIPERFSGSNSGNTATLTINRVEAGDEADYYCQVWDSSNDLLIFGGGTKLTVLG	no binding (tested: 250 nM)
anti-mutCALR antibody clone 19 (antibody, human IgG1, lambda, V domains shown, human IgG1; group 1) VH: EVQLVQSGAEVKKPGASVKVSCKVSGYTLTELSMQWVRQAPGKGLEWMGGFDPDDGETMYAEKFQGRLTVTEDTPTDTVYMELRSLTSEDTALYFCATSPGYDFFDYWGQGTLVTVSS VL: SYVLTQPLSVSVALGQTARITCGGSNIGDIRVHWYQQKPGQAPVLVVYDDSDRPSGIPERFSGSNSGNTATLTINRVEAGDEADYYCQVWDSSNDLLIFGGGTKLTVLG	no binding (tested: 250 nM)
anti-mutCALR antibody clone 8 (antibody, human IgG1, lambda, V domains shown, human IgG1; group 1) VH: QVQLVQSGAEVKKPGSSVKVSCKVSGYTLTELSMQWVRQAPGKGLEWMGGFDPDDGETMYAEKFQGRLTVTEDTSTDTVYMELRSLTSEDTALYFCATSPGYDFFDYWGQGTLVTVSS VL: SYELTQPPSVSVAPGQTARITCGGNNIGSKSVHWYQQKPGQAPVLVVYDDSDRPSGIPERFSGSNSGRTATLTISRVEAGDEADYHCQVWDSSSDHLVFGGGTKLTVLG	no binding (tested: 250 nM)
anti-mutCALR antibody clone 7 (antibody, human IgG1, lambda, V domains shown, human IgG1; group 1) VH: EVQLVQSGAEVKKPGASVKVSCKVSGYTLTELSMQWVRQAPGKGLEWMGGFDPDDGETMYAEKFQGRLTVTEDTSTDTVYMELRSLTSEDTALYFCATSPGYDFFDYWGQGTLVTVSS VL: SYVLTQPPSVSVAPGQTASITCVGTNFGSKNVHWYQQRPGQAPVLVVYDDSDRPSGIPERFSGSNSGNTATLTINRVEAGDEADYYCQVWDSSNDLLIFGGGTKLTVLG	no binding (tested: 250 nM)
anti-mutCALR antibody clone 20 (antibody, human IgG1, lambda, V domains shown, human IgG1; group 1) VH: EVQLVQSGAEVKKPGASVKVSCKVSGYTLTELSMQWVRQAPGKGLEWMGGFDPDDGETMYAEKFQGRLTVTEDTSTDTVYMELRSLTSEDTALYFCATSPGYDFFDYWGQGTLVTVSS VL: SYVLTQPPSVSVAPGKTARITCGGNNIGSKGVHWYQQKPGQAPVLVVYDDSDRPSGIPERFSGSNSGNTATLTINRVEAGDEADYYCQVWDSSNDLLIFGGGTKLTVLG	no binding (tested: 250 nM)
anti-mutCALR antibody clone 16 (antibody, human IgG1, lambda, V domains shown, human IgG1; group 1) VH: EVQLVQSGAEVKKPGASVKVSCKVSGYTLTELSMQWVRQAPGKGLEWMGGFDPDDGETMYAEKFQGRLTVTEDTSTDTVYMELRSLTSEDTALYFCATSPGYDFFDYWGQGTLVTVSS VL: SYVLTQPPSVSVAPGKTARITCGGNNTGSKSVHWYQQKPGQAPVLVVYDDSDRPSGIPERFSGSNSGNTATLTINRVEAGDEADYYCQVWDSSNDLLIFGGGTKLTVLG	no binding (tested: 250 nM)
anti-mutCALR antibody clone 15 (antibody, human IgG1, lambda, human IgG1; group 1) heavy: not shown light: SYELTQPPSVSVAPGKTARITCGGDNIGSKSVHWYQQKPGQAPVLVVYDDSDRPSGIPERFSGSNSGNTATLTINRVEAGDEADYYCQVWDSSNDLLIFGGGTKLTVLGQPKAAPSVTLFPPSSEELQANKATLVCLISDFYPGAVTVAWKADSSPVKAGVETTTPSKQSNNKYAASSYLSLTPEQWKSHRSYSCQVTHEGSTVEKTVAPTECS	no binding (tested: 250 nM)
anti-mutCALR antibody clone 17 (antibody, human IgG1, lambda, human IgG1; group 1) heavy: not shown light: SYVLTQPPSVSVAPGQTARITCGGSDIGDEIVHWYQQKPGQAPVLVVYDDSDRPSGIPERFSGSNSGNTATLTISRAQAGDEADYYCQVWDSSSDHLIFGGGTKLTVLGQPKAAPSVTLFPPSSEELQANKATLVCLISDFYPGAVTVAWKADSSPVKAGVETTTPSKQSNNKYAASSYLSLTPEQWKSHRSYSCQVTHEGSTVEKTVAPTECS	no binding (tested: 250 nM)
anti-mutCALR antibody clone 10 (antibody, human IgG1, lambda, V domains shown, human IgG1; group 1) VH: EVQLVQSGAEVKKPGASVKVSCKVSGYTLTELSMQWVRQAPGKGLEWMGGFDPDDGETMYAEKFQGRLTVTEDTSTDTVYMELRSLTSEDTALYFCATSPGYDFFDYWGQGTLVTVSS VL: SYELTQPPSVSVAPGQTARIPCGGNNIGSEGVHWYQQKPGQAPVLVVYDDSDRPSGIPERFSGSNSGNTATLTISRVEAGDEADYYCQVWDSSNDLLIFGGGTKLTVLG	no binding (tested: 250 nM)
